For assay [1], the target named is T1, human NGF protein (Sino biological, 11050-HNAC) (human, UniProt P01138 122-241). The assay is described as follows: cell-based or functional assay.
Assay [2] addresses T2, human RANKL protein (Sino Biological, 11682-HNCH) (human, UniProt O14788 136-317, limits assumed).
T2 construct: Bought protein
T2 sequence (looked up): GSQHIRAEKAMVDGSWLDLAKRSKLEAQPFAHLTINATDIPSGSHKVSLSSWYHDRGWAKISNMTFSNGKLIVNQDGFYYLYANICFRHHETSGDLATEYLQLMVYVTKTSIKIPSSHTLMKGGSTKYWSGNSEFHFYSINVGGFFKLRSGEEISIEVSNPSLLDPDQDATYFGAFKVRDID
The assay is described as follows: ELISA on coated antigen (1 ug/mL), anti-human Fc-HRP. The method, then: (§1) The antigen was diluted to 1 μg/mL with a pH 7.4 PBS buffer (BasalMedia, B320) and added to a 96-well microplate (Coming, 9018) at 100 μL/well, and the plate was incubated overnight at 4° C. After the liquid was discarded, a 5% skim milk (BD, 232100) blocking solution diluted with PBS was added at 300 μL/well, and the plate was incubated at 37° C. for 2 h for blocking. After the blocking was complete, the blocking solution was discarded, and the plate was washed 3 times with a PBST buffer (pH 7.4 PBS containing 0.1% tween-20). Then a bispecific antibody diluted with a sample diluent (pH 7.4 containing 1% BSA) to different concentrations was added at 100 μL/well, and the plate was incubated in a 37° C. incubator for 1 h. After the incubation was complete, the plate was washed 3 times with PBST. An HRP-labeled anti-human Fc secondary antibody (Abcam, ab97225) diluted with the sample diluent was added at 100 μL/well, and the plate was incubated at 37° C. for 1 h. After the plate was washed 3 times with PBST, TMB chromogenic substrate (KPL, 5120-0077) was added at 100 μL/well, and the plate was incubated at room temperature for 10 to 15 min. 50 μL of 1 M H₂SO₄ was added to each well to stop the reactions. The absorbance values at 450 nm were taken using a microplate reader, and the EC50 values for binding of the bispecific antibody to the antigens were calculated.
A general note: ELISA stands for enzyme-linked immunosorbent assay.

Assay [3] concerns the target T3, murine RANKL (R&D Systems, 462-TR/CF) (murine, UniProt O35235 72-316, limits assumed).
T3 construct: Bought protein
T3 sequence (looked up): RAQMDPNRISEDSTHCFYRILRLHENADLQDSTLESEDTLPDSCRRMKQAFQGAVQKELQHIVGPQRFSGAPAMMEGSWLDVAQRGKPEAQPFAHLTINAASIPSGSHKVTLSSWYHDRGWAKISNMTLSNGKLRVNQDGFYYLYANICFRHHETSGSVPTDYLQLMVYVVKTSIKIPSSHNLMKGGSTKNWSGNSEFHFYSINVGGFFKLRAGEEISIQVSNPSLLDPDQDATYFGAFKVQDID
The description is as above. The method, then:
as §1

For assay [4], the target named is T1, human NGF protein (Sino biological, …). Described as above. On the procedure: as §1
Assay [5] deals with T4, murine NGF (Sino Biological, 50385-MNAC) (murine, UniProt P01139 122-241).
T4 construct: Bought protein
The description is as above. The method, then:
as §1

Assay [6] deals with T1, human NGF protein (Sino biological, …). The assay is described as follows: cell-based or functional assay. The source holds these as a separate data set.
The target is the same in assay [7]. The assay is described as follows: SPR (Biacore), antibody captured on Protein A chip, antigen in flow, 1:1 fit. The method, then: Reaction signals were detected in real time by using Biacore, and binding and dissociation curves were obtained. After dissociation was complete in each cycle, the biochip was washed and regenerated with a glycine-hydrochloric acid regeneration solution (GE, BR-1003-54) having a pH of 1.5. Fitting was performed on the experimental data using BIAevaluation version 4.1 software with a 1:1 model, and affinity values were obtained.
A general note: Surface plasmon resonance follows binding to a sensor surface in real time, without labels.

The target is the same in assay [8]. Nature of the assay: blocking ELISA: antibody titrated with fixed biotin-human NGF, on coated human TrkA. On the procedure:
The plate was incubated at 37° C. for 1.5 h. After the incubation was complete, the plate was washed 3 times with PBST. Streptavidin-HRP (Invitrogen, 434323, diluted at 1:4000) was added at 100 μL/well, and the plate was incubated at 37° C. for 1 h. The supernatant was removed. After the plate was washed 3 times with PBST, TMB chromogenic substrate (KPL, 5120-0077) was added at 100 μL/well, and the plate was incubated at room temperature for 10 to 15 min. […] The absorbance values at 450 nm were taken using a microplate reader.

T1 sequence (P01138 122-241 limits assumed): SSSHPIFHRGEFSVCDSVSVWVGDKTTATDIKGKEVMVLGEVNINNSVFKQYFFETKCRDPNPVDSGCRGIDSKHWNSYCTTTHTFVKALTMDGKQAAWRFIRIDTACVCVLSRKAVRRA
T4 sequence (P01139 122-241 limits assumed): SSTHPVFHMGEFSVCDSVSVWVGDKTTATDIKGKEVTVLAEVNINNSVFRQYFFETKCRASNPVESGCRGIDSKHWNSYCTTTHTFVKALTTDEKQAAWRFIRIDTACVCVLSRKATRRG

B1: Tanezumab (antibody, human IgG2, kappa, V domains shown)
VH: QVQLQESGPGLVKPSETLSLTCTVSGFSLIGYDLNWIRQPPGKGLEWIGIIWGDGTTDYNSAVKSRVTISKDTSKNQFSLKLSSVTAADTAVYYCARGGYWYATSYYFDYWGQGTLVTVSS
VL: DIQMTQSPSSLSASVGDRVTITCRASQSISNNLNWYQQKPGKAPKLLIYYTSRFHSGVPSRFSGSGSGTDFTFTISSLQPEDIATYYCQQEHTLPYTFGQGTKLEIKR
notes: Control antibody; also called control anti-NGF antibody
For the molecule B1, the “TF-1 cell proliferation-inhibiting activity, fold relative to bispecific antibody 1” value in assay [1] is approximately 4.2 times. Further, in assay [2], the binding result was “no binding”. Besides, the binding result in assay [3] was “no binding”. Moreover, the EC50 in assay [4] worked out at 2.27 nM. This molecule returned an EC50 in assay [5] of 1.15 nM. The “TF-1 cell proliferation-inhibiting activity (TF-1 cells + human NGF, Cell-titer Glo) IC50” value in assay [6] stood at 0.759 nM. In assay [7], this molecule came in with a Kd of 0.142 nM, a koff of 0.000184 s⁻¹ and a kon of 1.29e+06 M⁻¹ s⁻¹. Moreover, the IC50 in assay [8] was 3.66 nM.

Usually EC50 stands for the concentration needed to bring the measured effect to its halfway point. A low value points to greater potency. For orientation: Kd means the free concentration of one partner at which half of the binding sites on the other are occupied at equilibrium, for simple one-to-one binding. A higher Kd goes with weaker binding. What is called koff is the first-order rate constant of dissociation. A low value points to slow dissociation. By kon is commonly meant a measure of how fast the partners come together. For orientation: IC50 means the concentration needed to halve the response being measured.

These data come from US20240254245A1 (JIANGSU HENGRUI PHARMACEUTICALS, published 2024).
